Experimental findings from patent publication US20250250350A1 are described below.

In one assay the target is ALPG-AF647 (human) (UniProt P10696). The experiment in a line: flow cytometry, lentivirally transduced primary T cells without PrimeR, stained with ALPG-AF647 (PrimeR axis) and MSLN-Bio / streptavidin-PE (CAR axis). For orientation: Flow cytometry measures light scatter and fluorescence of single cells or particles in a stream.
Another assay deals with MSLN-Bio (human) (UniProt Q13421). Nature of the assay: flow cytometry, lentivirally transduced primary T cells, stained with ALPG-AF647 (PrimeR axis) and MSLN-Bio / streptavidin-PE (CAR axis).
Chain of MSLN-Bio (human) (Q13421 other isoform, or with tags, fused parts or gaps limits assumed): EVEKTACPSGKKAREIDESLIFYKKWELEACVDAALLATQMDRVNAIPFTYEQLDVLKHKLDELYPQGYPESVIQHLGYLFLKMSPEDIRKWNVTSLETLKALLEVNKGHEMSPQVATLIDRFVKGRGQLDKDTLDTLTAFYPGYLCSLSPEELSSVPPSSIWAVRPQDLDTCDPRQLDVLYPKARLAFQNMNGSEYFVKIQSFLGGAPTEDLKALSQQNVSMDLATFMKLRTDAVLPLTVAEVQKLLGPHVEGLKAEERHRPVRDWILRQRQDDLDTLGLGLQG

Chain of ALPG-AF647 (human) (P10696 20-503 limits assumed): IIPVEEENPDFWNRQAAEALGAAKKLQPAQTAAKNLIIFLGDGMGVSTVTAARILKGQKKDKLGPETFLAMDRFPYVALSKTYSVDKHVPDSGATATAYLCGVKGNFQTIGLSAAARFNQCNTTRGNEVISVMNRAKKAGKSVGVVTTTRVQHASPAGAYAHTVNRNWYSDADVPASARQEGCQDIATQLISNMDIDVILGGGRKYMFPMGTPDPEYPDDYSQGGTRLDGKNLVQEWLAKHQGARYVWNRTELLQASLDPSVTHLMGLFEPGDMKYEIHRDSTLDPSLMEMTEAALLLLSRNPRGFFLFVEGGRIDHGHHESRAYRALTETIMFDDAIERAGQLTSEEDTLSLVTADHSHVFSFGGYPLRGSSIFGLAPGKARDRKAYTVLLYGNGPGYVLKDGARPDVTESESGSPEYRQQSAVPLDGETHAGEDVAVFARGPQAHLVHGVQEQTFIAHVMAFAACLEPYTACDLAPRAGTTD

Take SS1 CAR: in the assay with ALPG-AF647 (human), the % of cells PrimeR+ CAR+ (upper right quadrant) was 0.59% and the % of cells PrimeR+ CAR- (lower right quadrant) amounted to 0.079%. In the assay with MSLN-Bio (human), this substance gave a % of cells PrimeR+ CAR+ (upper right quadrant) of 0.59% and a % of cells PrimeR- CAR+ (upper left quadrant) of 59.2%.
